Experimental data as given in publication PMC11251522.

Columns and labels:
Sox2 HMG (human) = Sox2 HMG (human) (UniProt P48431); assay: fluorescence anisotropy; conditions: FP at 4°C, ERα: 20 mM Tris pH 7.5 (at 25°C), 100 mM NaCl, 5% glycerol, 0.01% IGEPAL, Sox2: 10 mM Tris pH 7.5 (at 25°C), 135 mM KCl, 15 mM NaCl, 0.1 mg/mL BSA …
ERα DBD-Ext (human) = assay: fluorescence anisotropy; conditions: apparent, FP at 4°C, ERα: 20 mM Tris pH 7.5 (at 25°C), 100 mM NaCl, 5% glycerol, 0.01% IGEPAL, Sox2: 10 mM Tris pH 7.5 (at 25°C), 135 mM KCl, 15 mM NaCl, 0.1 mg/mL BSA …

Sox2 HMG (human), sequence (P48431 40-123): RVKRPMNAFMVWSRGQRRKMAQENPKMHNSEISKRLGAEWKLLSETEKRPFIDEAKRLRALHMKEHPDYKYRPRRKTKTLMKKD

## CBS dsDNA (10 bp)
Sox2 HMG (human); printed ≤1, first (high-affinity) transition, 54% of signal
  Kd: < 1 nM
Sox2 HMG (human); second (low-affinity) transition
  Kd: 420 nM

## ERE dsDNA (18 bp)
ERα DBD-Ext (human); Hill n 2.1
  Kd: 11 nM

## NBS dsDNA (19 bp)
Sox2 HMG (human); apparent, Hill n 0.57
  Kd: 29 nM

## XBP1 hRNA (37 nt)
ERα DBD-Ext (human); Hill n 0.91
  Kd: 370 nM

## hRNA (43 nt)
Sox2 HMG (human); apparent, Hill n 1.1
  Kd: 53 nM

## ΔERE dsDNA (15 bp, half-site)
ERα DBD-Ext (human); Hill n 1.5, about half the ligand concentration, true Kd may be lower
  Kd: 2.8 nM
